Measurements published in paper PMC11098746 (2024).

Target: Circumsporozoite protein (CSP) (Plasmodium falciparum (isolate 3D7), UniProt Q7K740)
Assay: AVEXIS screen signal:noise (double-corrected)

Chain of Circumsporozoite protein (CSP) (Q7K740 19-374): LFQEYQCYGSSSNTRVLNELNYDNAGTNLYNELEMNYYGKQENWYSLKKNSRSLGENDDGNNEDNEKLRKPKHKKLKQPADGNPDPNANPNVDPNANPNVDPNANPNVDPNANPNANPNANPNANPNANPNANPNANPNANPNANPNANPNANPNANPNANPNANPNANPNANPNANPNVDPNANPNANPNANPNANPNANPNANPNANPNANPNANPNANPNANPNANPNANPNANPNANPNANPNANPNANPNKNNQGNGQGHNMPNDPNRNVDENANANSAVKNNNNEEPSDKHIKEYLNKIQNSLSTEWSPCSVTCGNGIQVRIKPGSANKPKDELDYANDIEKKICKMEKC

B1: ADP355 (protein)
chain: MALLLLHPAFQSCLLLTLLGLWRTTPEAHASSLGAPAISAASFLQDLIHRYGEGDSLTLQQLKALLNHLDVGVGRGNVTQHVQGHRNLSTCFSSGDLFTAHNFSEQSRIGSSELQEFCPTILQQLDSRACTSENQENEENEQTEEGRPSAVEVWGYG
modifications: bait human Fc-tagged dimer
binding score: 0.935

B2: ADP381 (protein)
chain: SQEKNKNANSSPVASTTPSASATTNPASATTLDQSKAWNRYRLPNTLKPDSYRVTLRPYLTPNDRGLYVFKGSSTVRFTCKEATDVIIIHSKKLNYTLSQGHRVVLRGVGGSQPPDIDKTELVEPTEYLVVHLKGSLVKDSQYEMDSEFEGELADDLAGFYRSEYMEGNVRKVVATTQMQAADARKSFPCFDEPAMKAEFNITLIHPKDLTALSNMLPKGPSTPLPEDPNWNVTEFHTTPKMSTYLLAFIVSEFDYVEKQASNGVLIRIWARPSAIAAGHGDYALNVTGPILNFFAGHYDTPYPLPKSDQIGLPDFNAGAMENWGLVTYRENSLLFDPLSSSSSNKERVVTVIAHELAHQWFGNLVTIEWWNDLWLNEGFASYVEYLGADYAEPTWNLKDLMVLNDVYRVMAVDALASSHPLSTPASEINTPAQISELFDAISYSKGASVLRMLSSFLSEDVFKQGLASYLHTFAYQNTIYLNLWDHLQEAVNNRSIQLPTTVRDIMNRWTLQMGFPVITVDTSTGTLSQEHFLLDPDSNVTRPSEFNYVWIVPITSIRDGRQQQDYWLIDVRAQNDLFSTSGNEWVLLNLNVTGYYRVNYDEENWRKIQTQLQRDHSAIPVINRAQIINDAFNLASAHKVPVTLALNNTLFLIEERQYMPWEAALSSLSYFKLMFDRSEVYGPMKNYLKKQVTPLFIHFRNNTNNWREIPENLMDQYSEVNAISTACSNGVPECEEMVSGLFKQWMENPNNNPIHPNLRSTVYCNAIAQGGEEEWDFAWEQFRNATLVNEADKLRAALACSKELWILNRYLSYTLNPDLIRKQDATSTIISITNNVIGQGLVWDFVQSNWKKLFNDYGGGSFSFSNLIQAVTRRFSTEYELQQLEQFKKDNEETGFGSGTRALEQALEKTKANIKWVKENKEVVLQWFTENSK
modifications: bait human Fc-tagged dimer
binding score: 0.803

B3: ADP278 (protein)
chain: IQAKLIFLNFVRVPYFIDLKKPQDQGLNHTCNYYLQPEEDVTIGVWHTVPAVWWKNAQGKDQMWYEDALASSHPIILYLHGNAGTRGGDHRVELYKVLSSLGYHVVTFDYRGWGDSVGTPSERGMTYDALHVFDWIKARSGDNPVYIWGHSLGTGVATNLVRRLCERETPPDALILESPFTNIREEAKSHPFSVIYRYFPGFDWFFLDPITSSGIKFANDENVKHISCPLLILHAEDDPVVPFQLGRKLYSIAAPARSFRDFKVQFVPFHSDLGYRHKYIYKSPELPRILREFLGKSEPEHQH
modifications: bait human Fc-tagged dimer
binding score: 0.76

B4: ADP140 (protein)
chain: MELRVLLCWASLAAALEETLLNTKLETADLKWVTFPQVDGQWEELSGLDEEQHSVRTYEVCDVQRAPGQAHWLRTGWVPRRGAVHVYATLRFTMLECLSLPRAGRSCKETFTVFYYESDADTATALTPAWMENPYIKVDTVAAEHLTRKRPGAEATGKVNVKTLRLGPLSKAGFYLAFQDQGACMALLSLHLFYKKCAQLTVNLTRFPETVPRELVVPVAGSCVVDAVPAPGPSPSLYCREDGQWAEQPVTGCSCAPGFEAAEGNTKCRACAQGTFKPLSGEGSCQPCPANSHSNTIGSAVCQCRVGYFRARTDPRGAPCTTPPSAPRSVVSRLNGSSLHLEWSAPLESGGREDLTYALRCRECRPGGSCAPCGGDLTFDPGPRDLVEPWVVVRGLRPDFTYTFEVTALNGVSSLATGPVPFEPVNVTTDREVPPAVSDIRVTRSSPSSLSLAWAVPRAPSGAVLDYEVKYHEKGAEGPSSVRFLKTSENRAELRGLKRGASYLVQVRARSEAGYGPFGQEHHSQTQLDESEGWREQLAL
modifications: bait human Fc-tagged dimer
binding score: 1.91
